The test has as its target KEAP1 (Kelch-like ECH-associated protein 1), recombinant (UniProt Q14145 1-624). Briefly: SPR. (Surface plasmon resonance follows binding to a sensor surface in real time, without labels.)

Chain of KEAP1 (Kelch-like ECH-associated protein 1), recombinant (Q14145 whole entry): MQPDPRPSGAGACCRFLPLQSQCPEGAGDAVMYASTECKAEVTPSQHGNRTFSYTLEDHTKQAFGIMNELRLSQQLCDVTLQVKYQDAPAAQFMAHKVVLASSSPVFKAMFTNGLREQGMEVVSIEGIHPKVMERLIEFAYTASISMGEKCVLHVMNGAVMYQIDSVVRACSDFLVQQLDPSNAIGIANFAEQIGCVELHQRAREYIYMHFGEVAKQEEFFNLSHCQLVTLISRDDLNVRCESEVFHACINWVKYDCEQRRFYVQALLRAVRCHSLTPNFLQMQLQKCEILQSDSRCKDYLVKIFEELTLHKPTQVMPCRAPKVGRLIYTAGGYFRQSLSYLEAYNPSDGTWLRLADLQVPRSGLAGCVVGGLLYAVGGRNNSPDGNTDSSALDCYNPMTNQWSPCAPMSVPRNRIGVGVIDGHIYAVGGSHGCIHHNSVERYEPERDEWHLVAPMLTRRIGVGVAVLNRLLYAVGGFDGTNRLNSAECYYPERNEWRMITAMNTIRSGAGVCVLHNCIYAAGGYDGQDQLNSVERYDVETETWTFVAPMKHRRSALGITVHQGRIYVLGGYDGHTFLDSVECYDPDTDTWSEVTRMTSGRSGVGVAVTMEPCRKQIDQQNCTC

B1: BDNF mature recombinant (brain-derived neurotrophic factor) (ligand, human, UniProt P23560 129-247, looked up)
chain: HSDPARRGELSVCDSISEWVTAADKKTAVDMSGGTVTVLEKVPVSKGQLKQYFYETKCNPMGYTKEGCRGIDKRHWNSQCRTTQSYVRALTMDSKKRIGWRFIRIDTSCVCTLTIKRGR
The Kd is the free concentration of one partner at which half of the binding sites on the other are occupied at equilibrium, for simple one-to-one binding. Broadly, the koff is a measure of how fast the partners let go of each other. As a reminder, the kon is a measure of how fast the partners come together. As for B1, the Kd is 2.71 nM, the koff was 0.00225 s⁻¹ and the kon came to 828000 M⁻¹ s⁻¹.

Values taken from paper doi:10.1101/2022.08.23.504973 (bioRxiv, 2022).
